BrdU incorporation of FLAG-TWEAKR expressing HUVEC, against goat anti-mouse IgG alone and BrdU incorporation of FLAG-TWEAKR expressing HUVEC, against vector-only transfected HUVEC with the cross-linking complex data for one substance are collected here from patent US20020110853A1.

For the experiment, the target named is FLAG-TWEAKR, expressed on transfected HUVEC (human) (UniProt Q9NP84). Put plainly: cell-based or functional assay.
Chain of FLAG-TWEAKR, expressed on transfected HUVEC (human) (Q9NP84 28-129): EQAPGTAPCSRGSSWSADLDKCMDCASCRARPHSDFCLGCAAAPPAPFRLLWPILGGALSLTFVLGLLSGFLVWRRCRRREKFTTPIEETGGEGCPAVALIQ

Turning to M2 anti-FLAG monoclonal antibody, the BrdU incorporation of FLAG-TWEAKR expressing HUVEC, against goat anti-mouse IgG alone was 3 fold and the BrdU incorporation of FLAG-TWEAKR expressing HUVEC, against vector-only transfected HUVEC with the cross-linking complex is 6 fold.
